The record followed here is PMC9482650, “Quantitative fragmentomics allow affinity mapping of interactomes” (Nature Communications, 2022).

Assay in all cases: holdup assay
Holding throughout (settings): plain residues with an end cap or a label only (N-terminal biotin on a linker: (peg)3)

Test [1] deals with T1, NHERF3_2, Q5T2W1.
T1 sequence (Q5T2W1 129-225, limits assumed, looked up): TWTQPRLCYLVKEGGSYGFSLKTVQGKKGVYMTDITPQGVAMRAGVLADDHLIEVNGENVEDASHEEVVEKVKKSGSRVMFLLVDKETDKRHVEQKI

Test [2] concerns the target T2, MPDZ_6, O75970.
T2 sequence (O75970 1003-1099, limits assumed, looked up): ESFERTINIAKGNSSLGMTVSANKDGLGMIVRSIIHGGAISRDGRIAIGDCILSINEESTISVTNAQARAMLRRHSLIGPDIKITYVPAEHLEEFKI

The target in test [3] is PDZRN4_2, Q6ZMN7.
Sequence of PDZRN4_2, Q6ZMN7 (Q6ZMN7 389-498): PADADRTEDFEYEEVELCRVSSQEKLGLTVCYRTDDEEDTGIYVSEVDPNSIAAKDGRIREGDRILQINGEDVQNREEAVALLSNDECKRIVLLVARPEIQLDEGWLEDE
Test [4] addresses MAGI1_3, Q96QZ7.
Test [5] addresses T3, TJP3_2, O95049.
T3 sequence (O95049 190-282, limits assumed, looked up): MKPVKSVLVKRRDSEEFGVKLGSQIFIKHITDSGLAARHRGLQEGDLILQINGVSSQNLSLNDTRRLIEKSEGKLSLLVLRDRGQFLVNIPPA

Test [6] addresses RIMS1, Q86UR5.
For test [7], the target named is MAGI3_3, Q5TCQ9.
Sequence of MAGI3_3, Q5TCQ9 (Q5TCQ9 572-655): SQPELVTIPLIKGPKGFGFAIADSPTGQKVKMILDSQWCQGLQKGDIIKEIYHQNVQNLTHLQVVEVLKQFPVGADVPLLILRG
Test [8] addresses T4, MPP5, Q8N3R9.
T4 sequence (Q8N3R9 251-346, limits assumed, looked up): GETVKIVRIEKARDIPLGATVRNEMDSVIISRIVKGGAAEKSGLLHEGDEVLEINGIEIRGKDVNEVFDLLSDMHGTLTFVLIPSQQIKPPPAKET

Test [9] concerns the target T5, SHANK2, Q9UPX8.
T5 sequence (Q9UPX8 621-730, limits assumed, looked up): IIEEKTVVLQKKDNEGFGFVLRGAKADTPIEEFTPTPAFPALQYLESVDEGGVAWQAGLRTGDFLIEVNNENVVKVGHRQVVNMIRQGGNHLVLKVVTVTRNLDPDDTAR

The target in test [10] is T6, SNTB2, Q13425.
T6 sequence (Q13425 110-208, limits assumed, looked up): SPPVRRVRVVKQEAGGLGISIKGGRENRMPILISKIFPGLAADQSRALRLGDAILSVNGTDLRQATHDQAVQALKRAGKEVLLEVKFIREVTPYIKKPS

In test [11] the target is T7, PDLIM3, Q53GG5.
T7 sequence (Q53GG5 1-94, limits assumed, looked up): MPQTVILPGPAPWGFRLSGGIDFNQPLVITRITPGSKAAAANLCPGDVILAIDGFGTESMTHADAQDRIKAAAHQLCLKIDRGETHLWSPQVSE

The target in test [12] is T8, SYNPO2L, Q9H987.
T8 sequence (Q9H987 1-98, limits assumed, looked up): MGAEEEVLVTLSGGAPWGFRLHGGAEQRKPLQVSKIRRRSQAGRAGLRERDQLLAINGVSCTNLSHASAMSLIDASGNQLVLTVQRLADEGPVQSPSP

The target in test [13] is MAGI3_6, Q5TCQ9.
Sequence of MAGI3_6, Q5TCQ9 (Q5TCQ9 1014-1103): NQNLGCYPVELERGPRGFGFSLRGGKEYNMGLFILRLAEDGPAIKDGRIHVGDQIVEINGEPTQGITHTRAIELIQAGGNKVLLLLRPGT
Test [14] has as its target T9, MLLT4, P55196.
T9 sequence (P55196 1002-1103, limits assumed, looked up): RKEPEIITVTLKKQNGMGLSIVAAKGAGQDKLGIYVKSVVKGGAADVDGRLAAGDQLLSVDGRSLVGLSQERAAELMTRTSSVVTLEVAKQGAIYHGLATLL

For test [15], the target named is T10, LNX2_1, Q8N448.
T10 sequence (Q8N448 228-328, limits assumed, looked up): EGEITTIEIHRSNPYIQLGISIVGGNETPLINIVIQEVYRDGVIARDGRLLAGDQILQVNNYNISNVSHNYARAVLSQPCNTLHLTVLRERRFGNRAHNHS

Test [16] has as its target T11, GIPC1, O14908.
T11 sequence (O14908 128-223, limits assumed, looked up): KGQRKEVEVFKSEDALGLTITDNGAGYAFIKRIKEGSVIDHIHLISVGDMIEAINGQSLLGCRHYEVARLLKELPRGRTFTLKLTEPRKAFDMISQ

Test [17] addresses T12, LNX2_4, Q8N448.
T12 sequence (Q8N448 595-690, limits assumed, looked up): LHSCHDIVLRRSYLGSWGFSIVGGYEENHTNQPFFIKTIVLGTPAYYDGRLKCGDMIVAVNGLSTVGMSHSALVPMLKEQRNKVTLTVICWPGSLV

The target of test [18] is T13, SHROOM4, Q9ULL8.
T13 sequence (Q9ULL8 5-102, limits assumed, looked up): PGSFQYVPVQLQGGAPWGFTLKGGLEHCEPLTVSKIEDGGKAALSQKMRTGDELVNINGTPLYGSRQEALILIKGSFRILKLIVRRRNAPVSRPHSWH

The target of test [19] is TJP1_1, Q07157.
Sequence of TJP1_1, Q07157 (Q07157 18-120): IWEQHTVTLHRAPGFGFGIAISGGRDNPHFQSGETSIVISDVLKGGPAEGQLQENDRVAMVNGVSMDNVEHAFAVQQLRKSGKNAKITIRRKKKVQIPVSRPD
The target in test [20] is T14, USH1C_3, Q9Y6N9.
T14 sequence (Q9Y6N9 447-547, limits assumed, looked up): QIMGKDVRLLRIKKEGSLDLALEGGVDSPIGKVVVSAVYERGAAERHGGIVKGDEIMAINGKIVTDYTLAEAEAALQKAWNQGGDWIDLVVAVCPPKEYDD

In test [21] the target is T15, SHANK3, Q9BYB0.
T15 sequence (Q9BYB0 641-750, limits assumed, looked up): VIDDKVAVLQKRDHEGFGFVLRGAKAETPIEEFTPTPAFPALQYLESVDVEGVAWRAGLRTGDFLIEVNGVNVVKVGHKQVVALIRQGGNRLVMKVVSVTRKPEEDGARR

Sequence of MAGI1_3, Q96QZ7 (Q96QZ7 638-725): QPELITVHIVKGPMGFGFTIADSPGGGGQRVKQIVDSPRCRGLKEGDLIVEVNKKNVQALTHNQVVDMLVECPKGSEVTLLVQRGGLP
Sequence of RIMS1, Q86UR5 (Q86UR5 584-692): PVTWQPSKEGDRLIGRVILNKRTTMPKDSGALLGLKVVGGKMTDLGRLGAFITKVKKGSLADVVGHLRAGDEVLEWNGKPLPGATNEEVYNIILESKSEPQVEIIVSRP

As for NLNSSEGVPDLLV [SARS-CoV-E, P59637], the negative-log Kd (pKd) result in test [1] is “below the threshold”; in test [2] it was “below the threshold”; in [3], 4.05; in test [4] it was “below the threshold”; in test [5], “below the threshold”; in [6], “below the threshold”. Further, the pKd is 3.85 in test [7]; “below the threshold” in test [8]; “below the threshold” in test [9]; “below the threshold” in test [10]; “below the threshold” in test [11]; “below the threshold” in test [12]. Further, the negative-log Kd (pKd) entry is “below the threshold” in test [13]; 4.31 in test [14]; “below the threshold” in test [15]; “below the threshold” in test [16]; 3.74 in test [17]; “below the threshold” in test [18]. Besides, the pKd result in [19], in [20] and in test [21] was “below the threshold” throughout.

What is called pKd is the negative decadic logarithm of the Kd, by convention in mol/L.
